# Measurements published in publication PMC12175502, “7β-Hydroxysteroid dehydratase Hsh3 eliminates the 7-hydroxy group of the bile salt ursodeoxycholate during degradation by Sphingobium sp. strain Chol11 and other Sphingomonadaceae” (Applied and Environmental Microbiology, 2025).
# Columns and labels:
# [1] = tested on: T1, Hsh2; test: continuous spectrophotometric assay at […] nm; assay type: biochemical, Sphingobium sp. Chol11; conditions: 50 mM MOPS pH 7.8, 30 °C, 25% ethanol; dehydration; substrate range 50 µM to 1 mM
# T1 construct: tag not reported cut
# [2] = tested on: T2, C[C@]12C=CC(=O)C=C1C[C@H](O)[C@@H]1[C@@H]2CC[C@]2(C)C(=O)CC[C@@H]12; test: purified protein; assay type: biochemical, Sphingobium sp. Chol11; conditions: 50 mM MOPS pH 7.8, 30 °C, 25% ethanol, dehydration, substrate range 50 µM to 1 mM
# T2 construct: His-tagged, pET28b(+), E. coli Tuner(DE3), Ni-NTA and desalting gel filtration; tag not reported cut; primers read start MEKLICAL and end AHLDGK before vector C-terminal tag
Compound,Km [1],Km [2],kcat [2],kcat/Km [2]
"C[C@]12C=CC(=O)C=C1C[C@@H](O)[C@@H]1[C@@H]2CC[C@]2(C)C(=O)CC[C@@H]12 [XI, 7α-hydroxy-androsta-1,4-diene-3,17-dione]",250 ± 50 µM,–,–,–
Hsh3 (Nov2c681) (Sphingobium sp.),–,1260 ± 450 µM,130 ± 30.1 s⁻¹,103000 M⁻¹ s⁻¹
